# From patent US20260028391A1 (HUMABS BIOMED, published 2026)
# What was measured:
# [1] = molecular target: T1, RSV F expressed on transfected Expi293F cells (respiratory syncytial virus (RSV)); assay: flow cytometry, transfected Expi293F cells, fixed and permeabilised
# biot-RSV-F wt [2] = molecular target: T2, biot-RSV-F wt (respiratory syncytial virus (RSV)); assay: BLI, SA sensor loaded with biot-RSV-F wt, mAb 5 ug/ml, 4 min association, 6 min dissociation
# biot-RSV-F wt [3] = molecular target: T2, biot-RSV-F wt; assay: as above; remark: listed apart in the source
# [4] = molecular target: T1, RSV F expressed on transfected Expi293F …; assay: flow cytometry, transfected Expi293F cells, fixed and permeabilised; remark: listed apart in the source
# biot-RSV-F wt [5] = molecular target: T2, biot-RSV-F wt; assay: BLI (Octet), biotinylated F on SA sensors, mAb 5 µg/ml
# [6] = molecular target: T3, RSV fusion glycoprotein (RSV-F), pre-fusion conformation, recombinant protein loaded on sensors (respiratory syncytial virus (RSV), …); assay: same manner as Experiment 1 (Example 6, Experiment 4)
# T3 construct: also called RSV-F wt; RSV-F protein
# [7] = molecular target: T4, MPV F D280N mutant expressed on Expi293F transfected cells (metapneumovirus (MPV), strain ); assay: FACS on Expi293F cells transfected with MPV-F D280N; mouse serum taken 56 d after injection
# T4 construct: whole, on cells; also called MPV D280N F; D280N F
# [8] = molecular target: T4, MPV F D280N mutant expressed on …; assay: FACS on Expi293F cells transfected with MPV-F D280N; mouse serum taken 2 h after injection
# [9] = molecular target: fusion glycoprotein (F) of RSV A/A2/61 (respiratory syncytial virus A/A2/61, UniProt P03420 26-574); assay: cell-based or functional assay
# [10] = molecular target: fusion glycoprotein (F) of RSV B/9727 (respiratory syncytial virus B/9727); assay: cell-based or functional assay
# [11] = molecular target: RSV A Randall fusion glycoprotein (F) (RSV A, strain Randall); assay: cell-based or functional assay
# RSV-B B9320 F protein = RSV-B B9320 F protein (RSV B, strain B9320); assay: cell-based or functional assay
# [12] = molecular target: T5, MPV fusion glycoprotein without the D280N mutation (MPV-F D280) (metapneumovirus); assay: biolayer interferometry (BLI), rIgG1 with M428L/N434S
# T5 construct: also called MPV F Non-D280N; MPV-F wt
# [13] = molecular target: T6, RSV fusion glycoprotein (RSV-F) (respiratory syncytial virus); assay: as above
# T6 construct: also called RSV-F wt
# [14] = molecular target: T7, MPV fusion glycoprotein with the D280N mutation (MPV-F N280) (metapneumovirus); assay: as above
# T7 construct: also called MPV F D280N; MPV-F D280N
# [15] = molecular target: T5, MPV fusion glycoprotein without the …; assay: SPR; F protein loaded on streptavidin sensors, mAb in solution
# Protocol: (§1) Binding affinity of mAbs for RSV-F protein, MPV-F D280 protein, and MPV-F N280 F variant protein was assessed using surface plasmon resonance (SPR).
# [16] = molecular target: T6, RSV fusion glycoprotein (RSV-F); assay: as above
# Protocol: as §1
# [17] = molecular target: T7, MPV fusion glycoprotein with the D280N …; assay: as above
# Protocol: as §1
# [18] = molecular target: fusion glycoprotein (F) of MPV A1/6621 (metapneumovirus A1/6621); assay: cell-based or functional assay
# DS-Cav1 RSV F = molecular target: T8, DS-Cav1 RSV F (respiratory syncytial virus); assay: ELISA on DS-Cav1 RSV F
# T8 construct: also called DC-VCav1
# [19] = molecular target: fusion glycoprotein (F) of the RSV used in the GFP-based neutralization assay of Table 23 (respiratory syncytial virus); assay: cell-based or functional assay
# [20] = molecular target: fusion glycoprotein (F) of the MPV (non-D280N) used in the GFP-based neutralization assay of Table 23 (metapneumovirus); assay: cell-based or functional assay
# [21] = molecular target: T3, RSV fusion glycoprotein (RSV-F), …; assay: method not said in the sentence; RSV-A as printed
binder,measurement,setting,value
"MPK51-v1.1-rIgG1m17,1-LS (antibody, V domains shown, called the parental mAb (v1.1)) VH: QVQLVESGGGLVKPGGSLRLSCAASGFRISGYYMIWVRQAPGKGLEWISAISGMSSYITYADSVKGRFTVSRDNGQNSLFLEMKSLRGEDTAVYFCAREEVPSPGPFDLWGQGTPVTVSS VL: QSVVTQPPSVSGAPGQRVTIFCTGSTSNIGAGYDVHWYQHLPGTAPRLLIFRNNNRPSGVPDRFSGFKSGTSASLAIIGLQVEDEADYYCQSYDRNMDGWAFGGGTKLTVL",Binding (FACS) relative to parental mAb MPK51-v1.1,[1],1
same,Kd,biot-RSV-F wt [2],< 0.001 nM
"MPK77-v1.1-rIgG1m17,1-LS (antibody, V domains shown, called the parental mAb (v1.1); also called MPK77-v1.1-rIgG1-LS) VH: QVQLVESGGGLVKPGGSLRLSCAASKSFSGYYMIWIRQAPGRGLEWIADISGSSTYTDYADSVKGRFTISRDNTRNTLYLQMNSLRPEDTAVYYCATEQVPSPGPFDLWGPGTLVTVSS VL: QSVLTQPPSVSGAPGQRVIISCTGSSSNIGAGYDVHWYQQFPGTSPKLLIYRNTNRPSGVPDRFSGFKSGASAALAITGLQAEDEADYYCQSYDRSLSGWAFGGGTKVTVL",Kd,biot-RSV-F wt [3],< 0.001 nM
same,Binding (FACS) relative to parental mAb MPK77-v1.1,[4],1
same,Kd,biot-RSV-F wt [5],< 0.001 nM
"MPK36-v3 (antibody, V domains shown, also called MPK36-v3-rIgG1-LS) VH: EVQLVESGGGLVKPGGSLRLSCAASFTISGYYMIWIRQAPGKGLEWISYISGSSTYTNYADSVKGRFTISRDNGQNTLYLHMTSLRADDTALYYCATEQTPSPGPFDLWGQGTLVTVSS VL: QTVVTQPPSVSGAPGQRVTISCSGTSSNIGAGYDVHWYQQFPGTSPKLLIYRNFNRPSGVPDRFSGSKSGSSASLAIAGLQAEDEADYYCQSYDKSLDGWVFGGGTKVTVL",Kd,[6],~0.001 nM
"MPK190 (antibody, V domains shown, Tested as MPK190-rIgG1-LS (IgG1 with M428L/N434S); also called MPK190-rIgG1-LS; MPK190-rIgG1-LS(4B6)) VH: EVQLVESGGGLVKPGGSLTLSCAASGFSISGYGMNWVRQAPGRGLEWVASISASSTYIYYADSMKGRFTISRDNGKTSLYLQMKSLRAEDTAVYYCARAPIEPPYFDLWGRGTLVTVSS VL: QSVLTQPPSVSGAPGQRVTISCTGSNSNIGAGYDVHWYQHLPGKAPKVLIYGNNNRPSVVPDRFSGSNSGASASLAISGLQAEDEADYFCQSYDRRLSGPIFGGGTKLTVL",EC50,[7],0.084 mg/L
same,EC50,[8],0.062 mg/L
"MPH12 (antibody, IgG1, V domains shown, also called WT; parental MPH12-wt) VH: QVQLVESGGGLVKPGGSLRLSCVASGFTFSGFYMKWIRQAPGKGLEWVSSISASGSYTNYADSVEGRFTVSRDNAKNSLFLLMSSLRAEDTAVYYCARGDSYCGASACHGEFFHKWGQGTLVTVSS VL: QSVLTQPPSVSGAPGQRVTISCTGSDSNIGADFDVHWYQQLPGTAPKLLIYGNINRPSGVPDRFSGSRSGTSAFLAITRLQAEDEADYYCQSYDRSLHYVFGAGTKVTVL","RSV IC50 (ng/ml), neutralization of A/A2",[9],142 ng/mL
same,"RSV IC50 (ng/ml), neutralization of B/9727",[10],19.9 ng/mL
same,"RSV IC50 (ng/ml), neutralization of A/Randall",[11],23.1 ng/mL
same,"RSV IC50 (ng/ml), neutralization of B/9320",RSV-B B9320 F protein,3.29 ng/mL
same,Kd,[12],0.026 nM
same,Kd,[13],0.42 nM
same,Kd,[14],1.1 nM
same,Kd,[15],0.001 nM
same,Kd,[16],0.75 nM
same,Kd,[17],1.7 nM
same,"MPV IC50 (nM), neutralization of MPV A1/6621",[18],0.0671 nM
same,EC50,DS-Cav1 RSV F,0.0326 mg/L
same,"RSV IC 50 (ng/mL), GFP-based in vitro neutralization",[19],47.7 ng/mL
same,"MPV IC50 (ng/mL), GFP-based in vitro neutralization",[20],24.6 ng/mL
"MPK65-v2 (antibody, human IgG1, V domains shown, also called MPK65-v2-rIgG1-LS) VH: QVPLVQSGAEVKKPGESLKISCKGSGYSFINYWIGWVRQMPGKGLEWMGVIYPFDSDTKYSPSFQGHVTISADKSSNTAYVQWSSLKASDTAMYYCARFTFGIAVVTDDVSGEGQAFEIWGQGTMVTVSS VL: EIVMMQSPATLSVSPGERATLSCRASQSVAGNLAWYQQRPGQAPRLLIYGASTRATGVPARFSGSGSETEFTLTISSLQSEDFAVYYCHQYSNWPQAFGQGTRLDIK",Kd,[21],< 0.1 nM
